From US20230111418A1 (TESARO, published 2023)

Experiments:
[1] = target: T1, Human PD-1 on the cell surface (human, UniProt Q15116 25-288); experiment: cell-based or functional assay
[2] = target: T1, Human PD-1 on the cell surface; experiment: cell-based or functional assay; remark: listed apart in the source
[3] = target: T2, Human PD-1 (SPR analyte/ligand; human PD-1 Fc fusion) (human, UniProt Q15116 25-167, limits assumed); experiment: SPR
T2 construct: not shown: Fc part of the fusion

[4] = target: T3, Cynomolgus monkey PD-1 (SPR analyte/ligand; cynomolgus monkey PD-1 Fc fusion) (cynomolgus monkey, UniProt B0LAJ3 25-170); experiment: SPR
T3 construct: also called Cyno PD-1

[5] = target: T1, Human PD-1 on the cell surface; experiment: flow cytometry on CHO-K1 cells expressing human PD-1
[6] = target: T4, Cynomolgus monkey PD-1 expressed on CHO-K1 cells (cynomolgus monkey, UniProt B0LAJ3 25-288); experiment: flow cytometry on CHO-K1 cells expressing cynomolgus monkey PD-1
T4 construct: also called Cyno PD-1; cell surface cynomolgus PD-1
T4 sequence (B0LAJ3 entry or part of it limits assumed): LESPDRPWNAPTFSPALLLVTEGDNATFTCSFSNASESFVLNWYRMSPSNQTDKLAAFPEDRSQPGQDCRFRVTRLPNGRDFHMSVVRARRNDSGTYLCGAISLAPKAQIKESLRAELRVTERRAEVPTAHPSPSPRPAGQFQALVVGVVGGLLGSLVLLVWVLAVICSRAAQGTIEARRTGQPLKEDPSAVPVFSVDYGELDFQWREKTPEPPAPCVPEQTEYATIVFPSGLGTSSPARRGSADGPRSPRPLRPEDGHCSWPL

T3 sequence (B0LAJ3 entry or part of it limits assumed): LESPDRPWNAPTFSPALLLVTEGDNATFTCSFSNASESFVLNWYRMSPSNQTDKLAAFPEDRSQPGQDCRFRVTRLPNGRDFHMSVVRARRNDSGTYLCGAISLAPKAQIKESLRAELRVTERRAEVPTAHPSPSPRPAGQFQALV
T2 sequence (Q15116 25-167 limits assumed): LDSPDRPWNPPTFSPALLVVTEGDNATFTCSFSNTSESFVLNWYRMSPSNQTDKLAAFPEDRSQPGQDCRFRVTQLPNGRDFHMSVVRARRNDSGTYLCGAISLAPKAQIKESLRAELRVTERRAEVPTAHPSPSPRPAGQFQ
T1 sequence (Q15116 25-288): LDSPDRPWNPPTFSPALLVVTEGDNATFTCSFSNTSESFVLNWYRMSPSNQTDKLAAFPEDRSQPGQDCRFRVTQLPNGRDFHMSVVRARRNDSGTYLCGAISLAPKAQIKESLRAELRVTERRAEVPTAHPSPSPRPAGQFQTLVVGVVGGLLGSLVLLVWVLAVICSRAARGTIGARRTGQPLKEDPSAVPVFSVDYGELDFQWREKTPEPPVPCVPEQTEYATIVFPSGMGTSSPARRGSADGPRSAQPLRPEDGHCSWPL

| Binder | mean IL-2 stimulation ratio in fRO assay, Day 3, across all dose levels [1] | IL-2 stimulation ratio in fRO assay, 1 mg/kg, Baseline (n=6) [2] | IL-2 stimulation ratio in fRO assay, 1 mg/kg, Day 3 (n=6) [2] | IL-2 stimulation ratio in fRO assay, 1 mg/kg, Day 15 (n=6) [2] | IL-2 stimulation ratio in fRO assay, 1 mg/kg, Day 22 (n=2) [2] | IL-2 stimulation ratio in fRO assay, 1 mg/kg, Day 29 (n=2) [2] | IL-2 stimulation ratio in fRO assay, 3 mg/kg, Baseline (n=3) [2] | IL-2 stimulation ratio in fRO assay, 3 mg/kg, Day 3 (n=3) [2] | IL-2 stimulation ratio in fRO assay, 3 mg/kg, Day 15 (n=3) [2] | IL-2 stimulation ratio in fRO assay, 10 mg/kg, Baseline (n=4) [2] | IL-2 stimulation ratio in fRO assay, 10 mg/kg, Day 3 (n=3) [2] | IL-2 stimulation ratio in fRO assay, 10 mg/kg, Day 15 (n=1) [2] | Kd [3] | koff [3] | kon [3] | Kd [4] | koff [4] | kon [4] | EC50 [5] | EC50 [6] |
| --- | --- | --- | --- | --- | --- | --- | --- | --- | --- | --- | --- | --- | --- | --- | --- | --- | --- | --- | --- | --- |
| exemplary humanized monoclonal anti-PD-1 antibody (human IGHG4*01 heavy chain with Ser to Pro hinge mutation at S228, human IGKC*01 kappa light chain; CDRs SEQ … (antibody, human IgG4 S228P, kappa, V domains shown, N-glycosylation at asparagine residue 293 (SEQ ID NO: 3)) VH: EVQLLESGGGLVQPGGSLRLSCAASGFTFSSYDMSWVRQAPGKGLEWVSTISGGGSYTYYQDSVKGRFTISRDNSKNTLYLQMNSLRAEDTAVYYCASPYYAMDYWGQGTTVTVSS VL: DIQLTQSPSFLSAYVGDRVTITCKASQDVGTAVAWYQQKPGKAPKLLIYWASTLHTGVPSRFSGSGSGTEFTLTISSLQPEDFATYYCQHYSSYPWTFGQGTKLEIKR | 1 ratio | 1.69 ratio | 1.01 ratio | 1 ratio | 1.32 ratio | 1.08 ratio | 1.62 ratio | 0.927 ratio | 0.977 ratio | 1.86 ratio | 1.05 ratio | 0.86 ratio | – | – | – | – | – | – | – | – |
| PD-1-binding agent (comprising SEQ ID NOs: 1 and 2) (antibody, V domains shown, It is probably the same humanized IgG4 (S228P)/kappa antibody as m2) VH: EVQLLESGGGLVQPGGSLRLSCAASGFTFSSYDMSWVRQAPGKGLEWVSTISGGGSYTYYQDSVKGRFTISRDNSKNTLYLQMNSLRAEDTAVYYCASPYYAMDYWGQGTTVTVSS VL: DIQLTQSPSFLSAYVGDRVTITCKASQDVGTAVAWYQQKPGKAPKLLIYWASTLHTGVPSRFSGSGSGTEFTLTISSLQPEDFATYYCQHYSSYPWTFGQGTKLEIKR | – | – | – | – | – | – | – | – | – | – | – | – | 0.3 nM | 0.00017 s⁻¹ | 570000 M⁻¹ s⁻¹ | 0.53 nM | 0.00023 s⁻¹ | 430000 M⁻¹ s⁻¹ | 2 nM | 3.4 nM |
